Assay results as given in publication PMC10153460.

Columns and labels:
[1] = molecular target: smc1p-T1117I cohesin (S. cerevisiae) (UniProt P32908)
[2] = molecular target: cohesin with Smc1p-D1164E (S. cerevisiae) (UniProt P32908)
[3] = molecular target: cohesin with Smc1p-T1117W (S. cerevisiae) (UniProt P32908)

Sequence of smc1p-T1117I cohesin (S. cerevisiae) (P32908 whole entry T1117I, chain 1 of 4): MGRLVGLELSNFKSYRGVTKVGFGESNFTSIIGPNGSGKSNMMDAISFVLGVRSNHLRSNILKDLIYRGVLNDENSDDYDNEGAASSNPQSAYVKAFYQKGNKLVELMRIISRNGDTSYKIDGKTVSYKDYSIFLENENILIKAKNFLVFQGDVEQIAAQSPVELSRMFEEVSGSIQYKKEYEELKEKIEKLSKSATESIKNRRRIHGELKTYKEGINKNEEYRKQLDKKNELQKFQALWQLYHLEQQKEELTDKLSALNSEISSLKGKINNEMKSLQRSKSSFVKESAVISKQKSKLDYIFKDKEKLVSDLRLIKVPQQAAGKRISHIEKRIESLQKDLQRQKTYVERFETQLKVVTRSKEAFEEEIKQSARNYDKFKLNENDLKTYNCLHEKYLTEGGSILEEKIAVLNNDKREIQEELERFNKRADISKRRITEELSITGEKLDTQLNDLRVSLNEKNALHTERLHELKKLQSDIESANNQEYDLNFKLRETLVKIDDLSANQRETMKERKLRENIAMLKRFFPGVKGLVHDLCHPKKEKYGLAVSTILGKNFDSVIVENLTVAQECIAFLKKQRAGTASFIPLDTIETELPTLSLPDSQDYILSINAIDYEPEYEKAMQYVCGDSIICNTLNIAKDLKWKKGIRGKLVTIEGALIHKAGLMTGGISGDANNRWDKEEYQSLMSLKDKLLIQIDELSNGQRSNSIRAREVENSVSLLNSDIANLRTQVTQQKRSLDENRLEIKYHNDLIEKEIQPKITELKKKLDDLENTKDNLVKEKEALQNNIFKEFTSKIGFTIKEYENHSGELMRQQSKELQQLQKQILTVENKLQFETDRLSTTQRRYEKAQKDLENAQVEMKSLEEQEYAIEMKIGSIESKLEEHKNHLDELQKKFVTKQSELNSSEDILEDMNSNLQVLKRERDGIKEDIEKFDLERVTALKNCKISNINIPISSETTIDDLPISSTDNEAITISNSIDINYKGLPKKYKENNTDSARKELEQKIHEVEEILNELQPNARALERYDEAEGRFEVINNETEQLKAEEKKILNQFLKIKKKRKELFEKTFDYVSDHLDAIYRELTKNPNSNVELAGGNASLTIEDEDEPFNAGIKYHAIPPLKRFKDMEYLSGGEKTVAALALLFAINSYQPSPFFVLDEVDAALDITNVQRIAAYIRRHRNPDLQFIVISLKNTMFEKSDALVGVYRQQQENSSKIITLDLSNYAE
Sequence of smc1p-T1117I cohesin (S. cerevisiae) (P47037 whole entry, chain 2 of 4, further chain): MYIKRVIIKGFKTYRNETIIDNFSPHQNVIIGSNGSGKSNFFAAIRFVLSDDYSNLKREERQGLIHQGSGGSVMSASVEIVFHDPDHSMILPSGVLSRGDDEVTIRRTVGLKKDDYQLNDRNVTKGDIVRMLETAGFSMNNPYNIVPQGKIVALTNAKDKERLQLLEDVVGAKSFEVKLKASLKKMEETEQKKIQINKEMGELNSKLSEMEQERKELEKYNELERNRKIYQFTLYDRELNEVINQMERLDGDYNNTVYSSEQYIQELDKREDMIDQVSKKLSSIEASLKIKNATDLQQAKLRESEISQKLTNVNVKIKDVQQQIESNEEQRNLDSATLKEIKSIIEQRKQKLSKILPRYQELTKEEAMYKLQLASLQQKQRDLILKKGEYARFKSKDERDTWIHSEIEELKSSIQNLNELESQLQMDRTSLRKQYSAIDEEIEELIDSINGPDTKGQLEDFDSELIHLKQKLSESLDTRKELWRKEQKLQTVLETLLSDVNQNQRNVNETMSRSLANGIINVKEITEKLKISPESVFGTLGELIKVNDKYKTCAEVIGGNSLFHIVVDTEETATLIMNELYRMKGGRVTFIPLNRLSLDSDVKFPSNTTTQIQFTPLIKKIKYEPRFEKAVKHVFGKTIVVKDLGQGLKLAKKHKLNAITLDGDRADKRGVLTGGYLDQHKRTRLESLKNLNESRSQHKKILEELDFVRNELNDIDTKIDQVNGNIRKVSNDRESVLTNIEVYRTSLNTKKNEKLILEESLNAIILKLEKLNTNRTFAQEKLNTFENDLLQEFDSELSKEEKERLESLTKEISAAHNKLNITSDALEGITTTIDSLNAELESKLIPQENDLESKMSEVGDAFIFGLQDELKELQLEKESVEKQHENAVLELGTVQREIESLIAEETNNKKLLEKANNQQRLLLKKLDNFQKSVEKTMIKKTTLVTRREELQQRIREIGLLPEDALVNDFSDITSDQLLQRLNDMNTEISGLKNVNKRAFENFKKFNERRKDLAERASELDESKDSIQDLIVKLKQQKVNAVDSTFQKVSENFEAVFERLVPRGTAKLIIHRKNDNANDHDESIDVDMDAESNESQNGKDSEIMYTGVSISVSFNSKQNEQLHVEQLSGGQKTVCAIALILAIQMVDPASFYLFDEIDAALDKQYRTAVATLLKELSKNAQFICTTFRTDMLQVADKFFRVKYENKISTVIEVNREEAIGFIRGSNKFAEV
Sequence of smc1p-T1117I cohesin (S. cerevisiae) (Q12158 whole entry, chain 3 of 4, further chain): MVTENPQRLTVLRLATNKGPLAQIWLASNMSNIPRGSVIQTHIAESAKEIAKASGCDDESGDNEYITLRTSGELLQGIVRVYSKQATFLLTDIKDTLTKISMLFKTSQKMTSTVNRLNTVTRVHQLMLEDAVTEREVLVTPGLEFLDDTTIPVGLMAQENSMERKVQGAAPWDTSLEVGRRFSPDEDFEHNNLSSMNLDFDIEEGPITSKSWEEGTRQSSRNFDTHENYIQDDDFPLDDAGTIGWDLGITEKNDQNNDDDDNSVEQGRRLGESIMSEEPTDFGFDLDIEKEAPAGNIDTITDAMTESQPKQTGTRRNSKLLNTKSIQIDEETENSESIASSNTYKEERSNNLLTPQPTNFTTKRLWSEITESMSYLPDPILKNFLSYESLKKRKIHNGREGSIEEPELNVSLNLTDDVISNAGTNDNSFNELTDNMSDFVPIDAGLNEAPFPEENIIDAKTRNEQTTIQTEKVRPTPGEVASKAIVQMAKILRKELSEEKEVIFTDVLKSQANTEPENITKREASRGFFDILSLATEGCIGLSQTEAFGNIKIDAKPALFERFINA
Sequence of smc1p-T1117I cohesin (S. cerevisiae) (P40541 whole entry, chain 4 of 4, further chain): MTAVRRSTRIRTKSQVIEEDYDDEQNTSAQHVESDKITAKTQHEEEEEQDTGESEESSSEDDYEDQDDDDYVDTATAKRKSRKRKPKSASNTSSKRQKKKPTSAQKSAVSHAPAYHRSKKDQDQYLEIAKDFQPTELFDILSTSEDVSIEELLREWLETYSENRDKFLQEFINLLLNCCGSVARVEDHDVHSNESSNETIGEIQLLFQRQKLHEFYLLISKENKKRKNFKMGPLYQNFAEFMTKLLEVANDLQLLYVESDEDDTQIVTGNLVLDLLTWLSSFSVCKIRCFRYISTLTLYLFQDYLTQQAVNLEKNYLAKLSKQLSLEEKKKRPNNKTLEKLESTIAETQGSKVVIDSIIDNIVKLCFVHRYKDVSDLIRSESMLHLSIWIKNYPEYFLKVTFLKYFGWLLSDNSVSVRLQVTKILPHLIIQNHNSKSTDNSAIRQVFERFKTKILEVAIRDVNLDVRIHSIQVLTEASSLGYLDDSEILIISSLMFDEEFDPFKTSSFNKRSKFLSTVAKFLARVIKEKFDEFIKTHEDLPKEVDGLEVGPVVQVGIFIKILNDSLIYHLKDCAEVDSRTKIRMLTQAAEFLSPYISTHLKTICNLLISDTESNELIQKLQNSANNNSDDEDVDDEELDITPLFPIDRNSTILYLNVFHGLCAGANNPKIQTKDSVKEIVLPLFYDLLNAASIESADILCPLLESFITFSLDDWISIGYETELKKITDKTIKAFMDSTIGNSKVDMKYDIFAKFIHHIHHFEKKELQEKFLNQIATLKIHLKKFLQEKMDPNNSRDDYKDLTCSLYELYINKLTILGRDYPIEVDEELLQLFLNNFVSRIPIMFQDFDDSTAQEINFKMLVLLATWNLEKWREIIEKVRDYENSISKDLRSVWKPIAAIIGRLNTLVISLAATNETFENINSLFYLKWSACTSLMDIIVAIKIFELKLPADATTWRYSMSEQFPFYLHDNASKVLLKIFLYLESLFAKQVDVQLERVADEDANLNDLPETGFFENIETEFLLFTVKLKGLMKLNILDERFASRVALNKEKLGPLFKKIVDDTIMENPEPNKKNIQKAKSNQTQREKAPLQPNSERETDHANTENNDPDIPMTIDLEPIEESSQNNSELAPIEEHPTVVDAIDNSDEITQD

## Scc2p/Scc4p (cohesin loader) (from UniProt Q04002 1-1493; P40090 1-624) (complex)
[1]
  ATPase activity of purified cohesin in the presence of DNA with Scc2p, against wild-type cohesin with Scc2p; EnzChek phosphate assay (% greater than wild-type cohesin): 50
[2]
  ATPase activity of purified cohesin in the presence of DNA, induction by Scc2p against that of wild-type cohesin; EnzChek phosphate assay (fold less than wild type): 2
[3]
  ATPase activity of purified cohesin in the presence of DNA, induction by Scc2p against that of wild-type cohesin; EnzChek phosphate assay (fold less than wild type): 2
